Results: US20120283172A1
Read-outs that look alike come from different tables or passages of the source.

Legend:
[1] = target: human growth hormone receptor on IM-9 cells (human) (UniProt P10912); experiment: cell-based or functional assay
[2] = target: human growth hormone receptor on IM-9 cells (human) (UniProt P10912)
[3] = target: human growth hormone receptor on IM-9 cells (human) (UniProt P10912); remark: listed apart in the source

Sequence of UniProt P10912 (P10912 19-638): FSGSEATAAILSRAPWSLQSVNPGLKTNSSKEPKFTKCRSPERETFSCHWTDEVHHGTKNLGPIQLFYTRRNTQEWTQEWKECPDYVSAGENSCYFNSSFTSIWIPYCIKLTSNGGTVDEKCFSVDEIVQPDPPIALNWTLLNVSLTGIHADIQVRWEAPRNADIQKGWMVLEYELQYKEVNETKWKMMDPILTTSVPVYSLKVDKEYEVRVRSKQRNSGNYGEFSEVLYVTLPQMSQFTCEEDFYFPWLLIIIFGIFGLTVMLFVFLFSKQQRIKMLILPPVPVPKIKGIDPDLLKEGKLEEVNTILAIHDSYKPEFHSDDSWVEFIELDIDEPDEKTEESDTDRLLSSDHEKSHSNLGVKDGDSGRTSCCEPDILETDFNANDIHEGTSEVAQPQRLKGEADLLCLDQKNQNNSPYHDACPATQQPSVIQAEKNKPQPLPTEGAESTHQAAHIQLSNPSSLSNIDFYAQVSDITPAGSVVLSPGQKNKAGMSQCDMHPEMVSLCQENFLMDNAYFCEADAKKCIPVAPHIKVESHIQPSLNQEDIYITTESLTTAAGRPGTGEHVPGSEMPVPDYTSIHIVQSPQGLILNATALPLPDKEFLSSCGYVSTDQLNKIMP

With “hGH F139pAF (from UniProt P01241 27-217) (ligand)” the EC50 of STAT5 phosphorylation in IM-9 cells (MFI by intracellular phospho-STAT5 staining) [1] was 3.3 nM.
In the case of “hGH N99pAF (from UniProt P01241 27-217) (ligand)”, the EC50 of STAT5 phosphorylation in IM-9 cells (MFI by intracellular phospho-STAT5 staining) [1] is reported as 8.5 nM.
Work on (His)F92pAF-5K (ligand) yielded an EC50, STAT5 phosphorylation in IM-9 cells (intracellular phospho-STAT5 staining, FACS, MFI PE) [2] of 1.5 nM.
“hGH T135pAF (from UniProt P01241 27-217) (ligand)” gave an EC50 of STAT5 phosphorylation in IM-9 cells (MFI by intracellular phospho-STAT5 staining) [1] of 0.9 nM.
For “hGH A155pAF (from UniProt P01241 27-217) (ligand)”, the EC50 of STAT5 phosphorylation in IM-9 cells (MFI by intracellular phospho-STAT5 staining) [1] was 1.3 nM.
“rat growth hormone, wild type (from UniProt P01244 27-216) (ligand)” gave an EC50 of STAT5 phosphorylation in IM-9 cells (MFI by intracellular phospho-STAT5 staining) [1] of over 200000 nM.
In the case of “hGH F92pAF (from UniProt P01241 27-217) (ligand)”, the EC50 of STAT5 phosphorylation in IM-9 cells (MFI by intracellular phospho-STAT5 staining) [1] is reported as 0.8 nM, the EC50, STAT5 phosphorylation in IM-9 cells (intracellular phospho-STAT5 staining, FACS, MFI PE) [3] is reported as 1.1 nM and the EC50, STAT5 phosphorylation in IM-9 cells (intracellular phospho-STAT5 staining, FACS, MFI PE) [2] is reported as 0.9 nM.
Work on “hGH K140pAF (from UniProt P01241 27-217) (ligand)” yielded an EC50 of STAT5 phosphorylation in IM-9 cells (MFI by intracellular phospho-STAT5 staining) [1] of 2.7 nM.
For “hGH Y103pAF (from UniProt P01241 27-217) (ligand)”, the EC50 of STAT5 phosphorylation in IM-9 cells (MFI by intracellular phospho-STAT5 staining) [1] was 130000 nM.
Substance “hGH G136pAF (from UniProt P01241 27-217) (ligand)” has an EC50 of STAT5 phosphorylation in IM-9 cells (MFI by intracellular phospho-STAT5 staining) [1] of 1.4 nM.
Work on “His-tagged hGH Y143pAF (from UniProt P01241 27-217) (ligand)” yielded an EC50 of STAT5 phosphorylation in IM-9 cells (MFI by intracellular phospho-STAT5 staining) [1] of 0.8 nM.
With “hGH G131pAF (from UniProt P01241 27-217) (ligand)” the EC50 of STAT5 phosphorylation in IM-9 cells (MFI by intracellular phospho-STAT5 staining) [1] was 0.8 nM.
With “hGH E88pAF (from UniProt P01241 27-217) (ligand)” the EC50 of STAT5 phosphorylation in IM-9 cells (MFI by intracellular phospho-STAT5 staining) [1] was 0.9 nM.
(His)F92-pAF-30K (ligand) was tested, and the EC50, STAT5 phosphorylation in IM-9 cells (intracellular phospho-STAT5 staining, FACS, MFI PE) [2] was 4.1 nM.
Work on “hGH P133pAF (from UniProt P01241 27-217) (ligand)” yielded an EC50 of STAT5 phosphorylation in IM-9 cells (MFI by intracellular phospho-STAT5 staining) [1] of 1 nM.
For “hGH R134pAF (from UniProt P01241 27-217) (ligand)”, the EC50 of STAT5 phosphorylation in IM-9 cells (MFI by intracellular phospho-STAT5 staining) [1] was 0.9 nM.
“hGH Y111pAF (from UniProt P01241 27-217) (ligand)” was tested, and the EC50 of STAT5 phosphorylation in IM-9 cells (MFI by intracellular phospho-STAT5 staining) [1] was 1 nM.
For “hGH S95pAF (from UniProt P01241 27-217) (ligand)”, the EC50 of STAT5 phosphorylation in IM-9 cells (MFI by intracellular phospho-STAT5 staining) [1] was 16.7 nM.
Substance (His)F92pAF-20K (ligand) has an EC50, STAT5 phosphorylation in IM-9 cells (intracellular phospho-STAT5 staining, FACS, MFI PE) [2] of 4.6 nM.
With “hGH Q91pAF (from UniProt P01241 27-217) (ligand)” the EC50 of STAT5 phosphorylation in IM-9 cells (MFI by intracellular phospho-STAT5 staining) [1] was 2 nM.
